Data on one substance can be found in IntAct's records for PubMed 36096339.

Some targets named below: 1433b_human YWHAB (UniProt P31946); 1433f_human YWHAH (UniProt Q04917); 1433g_human YWHAG (UniProt P61981); 1433t_human YWHAQ (UniProt P27348); 1433z_human YWHAZ (UniProt P63104); 1433e_human YWHAE (UniProt P62258).
Chain of UniProt P63104 (P63104 whole entry): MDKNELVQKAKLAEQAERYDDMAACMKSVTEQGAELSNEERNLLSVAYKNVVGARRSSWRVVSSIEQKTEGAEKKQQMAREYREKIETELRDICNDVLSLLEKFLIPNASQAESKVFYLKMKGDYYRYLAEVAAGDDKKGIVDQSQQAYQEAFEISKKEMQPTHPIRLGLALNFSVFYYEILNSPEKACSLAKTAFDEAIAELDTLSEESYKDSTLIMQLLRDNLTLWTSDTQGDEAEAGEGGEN
Chain of UniProt Q04917 (Q04917 whole entry): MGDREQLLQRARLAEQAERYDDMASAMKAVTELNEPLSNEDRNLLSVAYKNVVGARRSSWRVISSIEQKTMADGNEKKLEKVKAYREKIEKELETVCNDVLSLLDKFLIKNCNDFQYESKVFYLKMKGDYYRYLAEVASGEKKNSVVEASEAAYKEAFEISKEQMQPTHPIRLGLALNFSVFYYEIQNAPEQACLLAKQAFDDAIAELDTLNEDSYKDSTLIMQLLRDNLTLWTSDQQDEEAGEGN
Chain of UniProt P31946 (P31946 whole entry): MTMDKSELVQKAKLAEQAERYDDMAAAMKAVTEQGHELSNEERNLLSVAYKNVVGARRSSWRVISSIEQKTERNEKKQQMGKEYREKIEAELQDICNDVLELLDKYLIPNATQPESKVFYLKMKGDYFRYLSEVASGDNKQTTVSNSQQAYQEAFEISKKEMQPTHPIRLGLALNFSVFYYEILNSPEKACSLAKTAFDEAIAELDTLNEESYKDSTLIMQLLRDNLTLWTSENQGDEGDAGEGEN
Chain of UniProt P27348 (P27348 whole entry): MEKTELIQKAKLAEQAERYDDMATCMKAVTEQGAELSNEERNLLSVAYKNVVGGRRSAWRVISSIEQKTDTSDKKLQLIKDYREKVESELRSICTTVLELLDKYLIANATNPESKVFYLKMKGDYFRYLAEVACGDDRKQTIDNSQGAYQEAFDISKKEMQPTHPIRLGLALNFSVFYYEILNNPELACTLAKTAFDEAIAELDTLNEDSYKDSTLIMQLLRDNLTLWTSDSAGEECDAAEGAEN
Chain of UniProt P62258 (P62258 whole entry): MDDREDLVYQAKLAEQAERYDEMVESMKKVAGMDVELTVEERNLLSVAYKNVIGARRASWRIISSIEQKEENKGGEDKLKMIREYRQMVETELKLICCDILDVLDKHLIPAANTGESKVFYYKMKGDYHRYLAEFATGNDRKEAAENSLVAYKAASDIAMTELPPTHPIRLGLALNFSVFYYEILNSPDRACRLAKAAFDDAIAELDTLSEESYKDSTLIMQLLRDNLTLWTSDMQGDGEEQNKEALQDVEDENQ
Chain of UniProt P61981 (P61981 whole entry): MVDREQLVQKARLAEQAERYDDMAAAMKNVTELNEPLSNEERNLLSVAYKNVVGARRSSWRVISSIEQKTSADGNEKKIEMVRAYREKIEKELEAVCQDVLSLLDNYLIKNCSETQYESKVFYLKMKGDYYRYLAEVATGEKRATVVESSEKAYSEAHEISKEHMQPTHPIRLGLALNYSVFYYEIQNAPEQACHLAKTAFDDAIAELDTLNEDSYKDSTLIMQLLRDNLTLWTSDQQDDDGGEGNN

Spatacsin (Homo sapiens), Q96JI7 S1955A: the “effect of a mutation on the interaction” value with 1433b_human YWHAB is recorded as “decreasing interaction strength”; in the assay with 1433f_human YWHAH, “decreasing interaction strength”; with 1433g_human YWHAG, “decreasing interaction strength”; in the assay with 1433t_human YWHAQ it was “decreasing interaction strength”; with 1433z_human YWHAZ, “decreasing interaction strength”; in the assay with 1433e_human YWHAE it was “with no effect”.
